Laboratory results as given in US20230212300A1 (REMD BIOTHERAPEUTICS, published 2023).

Target: T1, human endothelin A receptor (ETAR), tagged, stably expressed on recombinant CHO cells (human, UniProt P25101 21-427)
T1 sequence: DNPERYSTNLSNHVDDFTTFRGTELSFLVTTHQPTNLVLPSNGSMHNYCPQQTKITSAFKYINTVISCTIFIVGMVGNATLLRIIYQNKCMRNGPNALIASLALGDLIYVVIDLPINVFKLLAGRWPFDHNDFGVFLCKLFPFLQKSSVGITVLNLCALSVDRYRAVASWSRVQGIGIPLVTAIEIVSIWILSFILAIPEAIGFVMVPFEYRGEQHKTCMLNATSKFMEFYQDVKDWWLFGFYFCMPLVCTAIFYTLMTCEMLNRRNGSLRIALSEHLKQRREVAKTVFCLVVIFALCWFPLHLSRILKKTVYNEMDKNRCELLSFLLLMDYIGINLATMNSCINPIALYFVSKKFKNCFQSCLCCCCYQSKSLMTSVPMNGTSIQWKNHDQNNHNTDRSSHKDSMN
Experiment: cell-based or functional assay

B1: murine mAb 312A10E5 (antibody, V domains shown)
VH: QIQLVQSGPDLKKPGETVKISCKASGYTFTNYGMSWVKQAPGKGLKWMGWINTYSGESTYADDFKGRFAFSLETSASTAYLQINNLKNEDTATYFCARSLNRDTWFTYWGQGTLVTVSA
VL: QAVVTQESALSTSPGETVTLTCRSITGAVTTSNYANWVQEKPDHLFTGLIGGTNNRAPGVPARFSGSLIGDKAALTITGAQTEDEAIYFCALWYSNHWVFGGGTKLTVL
- HuET AR Binding IC50 (nM); IP1 assay (IP-one-Gq kit, HTRF 665/620) with 25.0 nM ET-1: 0.0891 nM

B2: murine mAb 336D8G9 (antibody, V domains shown)
VH: EVQLQQSGAELVRPGASVKLSCPASGFTIKDYYIHWVKQRPEQGLEWIGRIDPEDGDTEYAPKFQGKATMTADTSSNTAYLHLSSLTSEDTAVYYCTSNWYSNSYWGQGTTLTVSS
VL: DVVMTQTPLSLPVSLGDQASISCRSSQSLVHSNGNTYLHWYLQKPGQSPKVLIYKVSNRFSGVPDRFSGSGSGTDFTLKISRVEAEDLGVYFCSQSTHVPYTFGGGTKLEIK
- HuET AR Binding IC50 (nM); IP1 assay (IP-one-Gq kit, HTRF 665/620) with 25.0 nM ET-1: 0.0607 nM
